One data set deals with biotinyl-Phe-oxazolone. In words: self-aminoacylation, catalytic enhancement (BFO) (fold over background); higher = more active; k-Seq, kA / k0A0; sequences stand for … in GGGAAUGGAUCCACAUCUACGAAUUC…UUCACUGCAGACUUGACGAAGCUG
The gist of the method:
(§1)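 Each biotinyl-aminoacyl-oxazolone, at 2–1250 μM, was incubated with mutagenized RNA pools (0.43 μM) carrying a 21-nt variable region. The 50 μL reactions contained HEPES/NaCl/KCl/MgCl2/CaCl2 buffer with 5% acetonitrile at pH 6.9–7.0 and ran for 90 minutes at room temperature. After streptavidin capture, RNA was measured by qPCR in triplicate and by Illumina sequencing, and catalytic enhancement was calculated as median kA over the uncatalyzed rate from a pseudo-first-order fit of per-sequence fraction reacted.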

The subject of another data set is biotinyl-Trp-oxazolone. In words: self-aminoacylation, catalytic enhancement (BWO) (fold over background); higher = more active; k-Seq, kA / k0A0; sequences stand for … in GGGAAUGGAUCCACAUCUACGAAUUC…UUCACUGCAGACUUGACGAAGCUG
The gist of the method: as §1

A further data set has as its system biotinyl-Leu-oxazolone. In words: self-aminoacylation, catalytic enhancement (BLO) (fold over background); higher = more active; k-Seq, kA / k0A0; sequences stand for … in GGGAAUGGAUCCACAUCUACGAAUUC…UUCACUGCAGACUUGACGAAGCUG
The gist of the method: as §1

The test system of a further data set is biotinyl-Met-oxazolone. In words: self-aminoacylation, catalytic enhancement (BMO) (fold over background); higher = more active; k-Seq, kA / k0A0; sequences stand for … in GGGAAUGGAUCCACAUCUACGAAUUC…UUCACUGCAGACUUGACGAAGCUG
The gist of the method: as §1

We go through 48 sequences from the supplement of paper PMC9233669.

This sample holds only a part of the variants without activity.

Consider “CUGUUUCAAACAAUCGGUCUG [Fam1A.1 aminoacylation ribozyme variant]”, for which the self-aminoacylation in the data set on biotinyl-Phe-oxazolone turned out to be 96.2; in the data set on biotinyl-Trp-oxazolone it was 38.4; with biotinyl-Leu-oxazolone it was 2.48.
For “AUUCACCGAGGUCAUCGGGAG [Fam2.2 aminoacylation ribozyme variant]”, the results for the self-aminoacylation in the data set with biotinyl-Phe-oxazolone and in the data set with biotinyl-Met-oxazolone were 4.74 and 2.23, respectively.
For “CAGCUUCAAACAAUCGGUCUG [Fam1A.1 aminoacylation ribozyme variant]”, the self-aminoacylation in the data set on biotinyl-Phe-oxazolone amounted to 52; in the data set with biotinyl-Trp-oxazolone it was 27.1; with biotinyl-Leu-oxazolone, 2.01.
In the same order, the values of “UCACUUCAAACAAUCGGUCUG [Fam1A.1 aminoacylation ribozyme variant]” are 70.7, 35.1 and 2.11.
For “CGACUUCAAACAAUCGGUUUG [Fam1A.1 aminoacylation ribozyme variant]”, in that order: 63.5, 32.7 and 2.33.
Turning to “CUACUUCAAACAAUCGCUGUG [Fam1A.1 aminoacylation ribozyme variant]”, in the data set with biotinyl-Leu-oxazolone, the self-aminoacylation worked out at 2.54.
Take “AAGUGUGCUAAUAGUCGCGAG [Fam3.1 aminoacylation ribozyme variant]”: the self-aminoacylation in the data set on biotinyl-Trp-oxazolone came to 2.41; with biotinyl-Leu-oxazolone, 2.47.
In the case of “AUCCACCUAGGUCAUAGGGUG [Fam2.2 aminoacylation ribozyme variant]”, the self-aminoacylation with biotinyl-Phe-oxazolone amounted to 2.19; in the data set with biotinyl-Trp-oxazolone it was 2.2; in the data set with biotinyl-Leu-oxazolone it was 2.16.
Regarding “AUUAUCCUGGUCAUCGAGGGA [Fam2.1 aminoacylation ribozyme variant]”, the self-aminoacylation with biotinyl-Leu-oxazolone came to 2.02.
For the sequence “AUUACUCUGGUCAUCGAGGGA [Fam2.1 aminoacylation ribozyme variant]”, the self-aminoacylation in the data set on biotinyl-Trp-oxazolone is 2.13; with biotinyl-Met-oxazolone, 2.09.
In the case of “AAUUUUGCUAAUAGUCGCAUG [Fam3.1 aminoacylation ribozyme variant]”, the self-aminoacylation in the data set with biotinyl-Phe-oxazolone came out at 3.03; with biotinyl-Trp-oxazolone, 3.4; with biotinyl-Met-oxazolone, 2.28.
For “ACGUUUGCUAAUAGUCGCCAG [Fam3.1 aminoacylation ribozyme variant]”, in that order: 2.03, 2.59 and 2.26.
Turning to “AUUACCCUGGGCAUCGAGUGU [Fam2.1 aminoacylation ribozyme variant]”, the self-aminoacylation was found to be 2.53 in the data set with biotinyl-Phe-oxazolone, 2.31 in the data set with biotinyl-Trp-oxazolone and 2.02 in the data set with biotinyl-Met-oxazolone.
As to “AUUACCCUGGUCAUCCAGUGC [Fam2.1 aminoacylation ribozyme variant]”, the self-aminoacylation with biotinyl-Phe-oxazolone was 5.75; with biotinyl-Leu-oxazolone, 2.19.
“CCACUCUUCAAUCAAUCGGUC [Fam1B.1 aminoacylation ribozyme variant]”: the self-aminoacylation with biotinyl-Phe-oxazolone is 33.5; in the data set on biotinyl-Trp-oxazolone it was 20.3.
As to “AAGUUUACUAAAAGUCGCAAG [Fam3.1 aminoacylation ribozyme variant]”, the self-aminoacylation was determined as 2.76 in the data set with biotinyl-Phe-oxazolone and 2.08 with biotinyl-Leu-oxazolone.
As to “CUGCUUCAAACAAUCGAUCUG [Fam1A.1 aminoacylation ribozyme variant]”, the self-aminoacylation is 7.44 in the data set on biotinyl-Phe-oxazolone and 2.77 with biotinyl-Trp-oxazolone.
In the same order, the values of “AAAUUUGCUAAUAGUCGUAAG [Fam3.1 aminoacylation ribozyme variant]” are 10.3 and 4.02.
For “UAGUUUGCUAAUAGUCGCAAG [Fam3.1 aminoacylation ribozyme variant]”, in that order: 9.38 and 3.18.
“AUUCACCUAGGUCAUCUCGUG [Fam2.2 aminoacylation ribozyme variant]”: the self-aminoacylation was found to be 5.77 with biotinyl-Phe-oxazolone and 2.29 in the data set on biotinyl-Leu-oxazolone.
With “CUUCUUCAAACAAUCGGUGUG [Fam1A.1 aminoacylation ribozyme variant]”, the self-aminoacylation is 4.48 in the data set on biotinyl-Phe-oxazolone and 2.46 in the data set with biotinyl-Trp-oxazolone.
Consider “AUUACCCUGGCCAUCGAGUAA [Fam2.1 aminoacylation ribozyme variant]”, for which the self-aminoacylation with biotinyl-Phe-oxazolone came out at 3.72; with biotinyl-Trp-oxazolone, 2.74.
For “CUACUUCAAACAAUCAGACUG [Fam1A.1 aminoacylation ribozyme variant]”, in that order: 8.24 and 2.98.
In the same order, the values of “GUACUUCAAACAAUCGGACUG [Fam1A.1 aminoacylation ribozyme variant]” are 5.92 and 5.26.
“AAGUAUGCUAAUAGUCACAAG [Fam3.1 aminoacylation ribozyme variant]”: the self-aminoacylation with biotinyl-Phe-oxazolone was 9.66; in the data set on biotinyl-Trp-oxazolone, 3.36.
For the sequence “AAGUUUGUUAAUAGUCGCAGG [Fam3.1 aminoacylation ribozyme variant]”, the figures for the self-aminoacylation in the data set on biotinyl-Phe-oxazolone, with biotinyl-Trp-oxazolone and in the data set with biotinyl-Leu-oxazolone were 5.46, 2.06 and 2.45, respectively.
Turning to “CCACACUUCAAGUAAUCGGCC [Fam1B.1 aminoacylation ribozyme variant]”, the self-aminoacylation is 3.03 in the data set with biotinyl-Phe-oxazolone and 4.17 in the data set on biotinyl-Trp-oxazolone.
As for “AUUUCCCUGGUCAUCAAGUGA [Fam2.1 aminoacylation ribozyme variant]”, the self-aminoacylation in the data set on biotinyl-Phe-oxazolone stood at 2.51; in the data set with biotinyl-Trp-oxazolone, 2.88; in the data set with biotinyl-Leu-oxazolone it was 2.2.
Turning to “CCACAGUUCAAGCAAUCGCUC [Fam1B.1 aminoacylation ribozyme variant]”, the self-aminoacylation is 2.03 in the data set on biotinyl-Phe-oxazolone and 2.43 in the data set on biotinyl-Leu-oxazolone.
On to “AUUCACCUAGAUCAUCGGGUA [Fam2.2 aminoacylation ribozyme variant]”, for which the figures for the self-aminoacylation in the data set on biotinyl-Phe-oxazolone and in the data set on biotinyl-Met-oxazolone were 5.46 and 2.12, respectively.
Turning to “CUUCUUCAAAUAAUCGGUCUG [Fam1A.1 aminoacylation ribozyme variant]”, the values for the self-aminoacylation with biotinyl-Phe-oxazolone and with biotinyl-Trp-oxazolone were 10.7 and 7.57, respectively.
In the same order, the values of “AAGUUUGCUAUUAGUCGCGAG [Fam3.1 aminoacylation ribozyme variant]” are 4.31 and 2.3.
Turning to “CUUCUUCAACCAAUCGGUCUG [Fam1A.1 aminoacylation ribozyme variant]”, the self-aminoacylation was determined as 9.05 in the data set on biotinyl-Phe-oxazolone and 6.07 in the data set with biotinyl-Trp-oxazolone.
On to “UAAUUUGCUAAUAGUCGCAAG [Fam3.1 aminoacylation ribozyme variant]”, for which the self-aminoacylation in the data set on biotinyl-Phe-oxazolone stood at 2.21; in the data set on biotinyl-Trp-oxazolone, 2.01.
In the same order, the values of “AGGUUUGCUAAUAGUCACAAG [Fam3.1 aminoacylation ribozyme variant]” are 9.69 and 2.76.
As for “UCACUCUUCAAGCAAUCGGUC [Fam1B.1 aminoacylation ribozyme variant]”, the values for the self-aminoacylation in the data set with biotinyl-Phe-oxazolone and with biotinyl-Trp-oxazolone were 27 and 12.7, respectively.
For “CUACUUCAAAGAAUCGGUCUC [Fam1A.1 aminoacylation ribozyme variant]”, in that order: 4.32 and 3.26.
Take “CUACCUCAAACAAUCGGUCUG [Fam1A.1 aminoacylation ribozyme variant]”: the self-aminoacylation worked out at 3.14 with biotinyl-Phe-oxazolone and 2.19 in the data set with biotinyl-Trp-oxazolone.
As to “AGGUCUGCUAAUAGUCGCAAG [Fam3.1 aminoacylation ribozyme variant]”, the values for the self-aminoacylation in the data set on biotinyl-Phe-oxazolone, with biotinyl-Trp-oxazolone and in the data set on biotinyl-Met-oxazolone were 37, 9.95 and 2.08, respectively.
Regarding “CCCGACUUCAAGCAAUCGGUC [Fam1B.1 aminoacylation ribozyme variant]”, the self-aminoacylation with biotinyl-Phe-oxazolone amounted to 91.8; in the data set on biotinyl-Trp-oxazolone, 47.6; with biotinyl-Leu-oxazolone, 2.85.
“UAACUUCAAACAAUCGGUCUG [Fam1A.1 aminoacylation ribozyme variant]”: the self-aminoacylation stood at 55.3 in the data set on biotinyl-Phe-oxazolone, 27.1 with biotinyl-Trp-oxazolone and 2.04 with biotinyl-Leu-oxazolone.
Turning to “CCACACUUCGAGCAAUCGGGC [Fam1B.1 aminoacylation ribozyme variant]”, the self-aminoacylation came out at 9.16 with biotinyl-Phe-oxazolone and 2.07 in the data set with biotinyl-Leu-oxazolone.
Take “AAGUUUACUAAUUGUCGCAAG [Fam3.1 aminoacylation ribozyme variant]”: the values for the self-aminoacylation in the data set with biotinyl-Phe-oxazolone and in the data set on biotinyl-Trp-oxazolone were 2.6 and 2, respectively.
As to “CCACUUCAAUCAAUCGGUCUG [Fam1A.1 aminoacylation ribozyme variant]”, the self-aminoacylation in the data set with biotinyl-Phe-oxazolone was found to be 41.8; in the data set with biotinyl-Trp-oxazolone, 29.4; in the data set with biotinyl-Leu-oxazolone, 2.1.
Regarding “AAGUUUGCUAACAGUCGUAAG [Fam3.1 aminoacylation ribozyme variant]”, the values for the self-aminoacylation with biotinyl-Phe-oxazolone and in the data set on biotinyl-Trp-oxazolone were 27.2 and 7.81, respectively.
In the same order, the values of “CCCCACUUCAUGCAAUCGGUC [Fam1B.1 aminoacylation ribozyme variant]” are 2.57 and 2.78.
For “ACGCACUUCAAGCAAUCGGUC [Fam1B.1 aminoacylation ribozyme variant]”, in that order: 33.8 and 19.9.
On to “AUUCACAUAGGUCAUCGGGGG [Fam2.2 aminoacylation ribozyme variant]”, for which the self-aminoacylation in the data set with biotinyl-Trp-oxazolone was determined as 2.66; in the data set on biotinyl-Met-oxazolone, 2.28.
